Measurements published in patent JP2004000045A (dated 2004).

Tests used:
[1] = target: T1, ヒト前立腺特異的膜抗原(PSMA) (human, UniProt Q04609 1-750); assay: flow cytometry, 10 μg/mL, Namalwa KJM-1 cells transfected with PSMA cDNA (pAMoPSMA)
T1 construct: whole, on cells; also called PSMA; ヒトPSMA

[2] = target: T1, ヒト前立腺特異的膜抗原(PSMA); assay: flow cytometry, 10 μg/mL, LNCaP cells

T1 sequence (Q04609 whole entry): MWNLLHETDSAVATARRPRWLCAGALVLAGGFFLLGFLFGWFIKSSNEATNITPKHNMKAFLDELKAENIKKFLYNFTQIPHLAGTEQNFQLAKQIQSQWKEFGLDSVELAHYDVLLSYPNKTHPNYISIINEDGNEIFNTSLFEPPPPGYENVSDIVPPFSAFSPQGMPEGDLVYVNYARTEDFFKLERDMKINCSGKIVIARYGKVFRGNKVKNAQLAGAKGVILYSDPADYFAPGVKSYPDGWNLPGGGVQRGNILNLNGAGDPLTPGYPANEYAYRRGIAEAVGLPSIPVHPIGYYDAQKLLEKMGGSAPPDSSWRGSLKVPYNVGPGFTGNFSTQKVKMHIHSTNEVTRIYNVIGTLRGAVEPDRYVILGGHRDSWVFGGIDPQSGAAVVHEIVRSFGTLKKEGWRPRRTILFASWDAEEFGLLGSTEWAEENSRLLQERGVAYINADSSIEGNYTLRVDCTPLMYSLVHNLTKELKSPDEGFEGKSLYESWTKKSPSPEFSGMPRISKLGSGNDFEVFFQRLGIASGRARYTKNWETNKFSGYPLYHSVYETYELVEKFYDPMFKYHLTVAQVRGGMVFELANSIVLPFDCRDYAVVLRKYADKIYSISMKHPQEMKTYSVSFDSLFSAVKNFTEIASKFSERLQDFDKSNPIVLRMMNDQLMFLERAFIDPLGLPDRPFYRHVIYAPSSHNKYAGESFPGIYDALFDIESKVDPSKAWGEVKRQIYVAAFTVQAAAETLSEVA

B1: 抗PSMAマウス抗体2C9 (antibody, V domains shown)
VH: DVHLQESGPGLVKPSQSLSLTCTVTGYSITSDYAWNWIRQFPGNKLEWMGYISFSGSTSYNPSLKSRISVTRDTSKNQFFLQLNSVTTEDTATYYCARWNYYGSSHVWFAYWGQGTLVTVSA
VL: DIKMTQSPSSMYASLGERVTITCKASQDIYSYLIWFQQKPGKSPKTLIYRANRLVDGVPSRFSGSGSGQDYSLTISSLEYEDMGIYYCLQYDEFATFGSGTKLEMKR
notes: Whole mouse antibody from hybridoma; also called マウスモノクローナル抗体2C9; 2C9
B1: binds [1].

B2: アドリアマイシン結合抗PSMAキメラ抗体ADM−KM2777 (antibody, human IgG1, V domains shown)
VH: DVHLQESGPGLVKPSQSLSLTCTVTGYSITSDYAWNWIRQFPGNKLEWMGYISFSGSTSYNPSLKSRISVTRDTSKNQFFLQLNSVTTEDTATYYCARWNYYGSSHVWFAYWGQGTLVTVSA
VL: DIKMTQSPSSMYASLGERVTITCKASQDIYSYLIWFQQKPGKSPKTLIYRANRLVDGVPSRFSGSGSGQDYSLTISSLEYEDMGIYYCLQYDEFATFGSGTKLEMKR
modifications: as for the heavy chain: linker on amino groups, sites not stated; adriamycin-(Gly-Pro)-PEG linker (PEG average MW about 2,000) coupled through NHS ester to amino groups of the antibody; on average 2.5 ADM per antibody molecule; sites not stated
notes: also called ADM-KM2777
B2: binds [2].

B3: 抗PSMAキメラ抗体KM2777 (antibody, human IgG1, V domains shown)
VH: DVHLQESGPGLVKPSQSLSLTCTVTGYSITSDYAWNWIRQFPGNKLEWMGYISFSGSTSYNPSLKSRISVTRDTSKNQFFLQLNSVTTEDTATYYCARWNYYGSSHVWFAYWGQGTLVTVSA
VL: DIKMTQSPSSMYASLGERVTITCKASQDIYSYLIWFQQKPGKSPKTLIYRANRLVDGVPSRFSGSGSGQDYSLTISSLEYEDMGIYYCLQYDEFATFGSGTKLEMKR
notes: Human-type chimeric antibody: 2C9 VH joined to human IgG1 CH and 2C9 VL joined to human kappa CL (vector pKANTEX93), produced in YB2/0 cells; also called KM2777; 抗PSMAヒト型キメラ抗体
B3: binds [2].
